Patent publication US20120045773A1, “CELL ADHESION INHIBITOR AND APPLICATIONS THEREOF” (University of Miyazaki, priority 2009, published 2012)

Key:
AML1 cell line [1] = test: Drug resistance assay by WST method with or without osteoblast cell in the medium; format: cell-based, human
Description: Effect of the presence of osteoblast cell on the drug resistance of AML1 cell line derived from human acute myelocytic leukemia (AML) was examined.
Specifically, by WST method, in which water-soluble formazan was produced, viability of AML1 cell line was evaluated under the presence of VP16 (5 μM), a kind of etoposide-based anticancer drug, between the cases of presence and absence of osteoblast cell in culture medium. It should be noted that AML1 cell line is fixed to medium plate through osteoblast cell when the osteoblast cell exists in the medium.
In addition, effect of the presence of the osteoblast cell on the drug resistance of AML1 cell line was examined, when Ara-C, a kind of anticancer drug of […] was used in place of VP16 as the anticancer drug. Specifically, the drug resistance assay was carried out by WST method using the same procedures as the above-mentioned method excepting that Ara-C (1 μg/mL) was used in place of VP16 as the anticancer drug.
Drug resistance assay by WST method was carried out by the same procedures as the above-mentioned Reference Example 5 (in the presence of Ara-C) using each of the above-established AML1 (shEVI1) cell and AML1 (shLuc) cell in place of AML1 cell line.

HNT34 cell line [2] = test: Cellular adhesiveness assay of HNT34 cell line; format: cell-based, human; conditions: HNT34(shEVI1) compared with HNT34(shLuc); FIG. 6
Description: (§1) Specifically, 100 μL of 40 times-diluted growth factor reduced matrigel (produced by BD Biosciences) with RPMI1640/10% FCS was added to each well of a 96-well plate, incubated at 4° C. for 6 hours, and washed twice with PBS. The above-mentioned cell was added to each of the wells at 10000 cells/100 μL. After that, the cell was incubated at 37° C. for 2 hours and washed three times with PBS. After that, 90 μL of RPMI1640/10% FCS and 10 μL of Cell counting kit 8 (produced by DOJINDO Laboratories) were added to each well, incubated at 37° C. for 30 minutes and measured at wavelength of 450 nm by a spectrophotometer.
The cellular adhesiveness was evaluated for the above-mentioned established HNT34(shEVI1) and HNT34(shLuc) by the same method as the above-mentioned Example 1-2.

HNT34 cell line [3] = test: Cellular proliferative ability assay of HNT34 cell line (Cell counting kit 8); format: cell-based, human; conditions: HNT34(shEVI1) vs HNT34(shLuc) control cell line; FIG. 7
Description: Cellular proliferative ability was evaluated for the above-mentioned established HNT34(shEVI1) and HNT34(shLuc).
Specifically, cells diluted with RPMI1640/10% FCS were added to each well of a 96-well plate at 1000 cells/100 μL. After that, the cell suspension was incubated at 37° C. for an appropriate time, each 10 μL of Cell counting kit 8 (produced by DOJINDO Laboratories) was added, incubated at 37° C. for 30 minutes, and measurement was carried out at wavelength of 450 nm using a spectrophotometer.

[4] = system: genes of various integrin families; test: Expression of integrin family genes by PCR in HNT34 cell line transfected with shEVI1; format: cell-based, human; conditions: HNT34(shEVI1) vs HNT34(shLuc); transfection with Nucleofector; FIG. 5
Text: (§2) EVI1 expression-inhibited HNT34 cell line (hereinafter, also called “HNT34(shEVI1)”) was established by the transfection of shEVI1, which was used in the above-mentioned Example 1-1, using Nucleofector (produced by Amaxa Biosystems), a gene transfection system, into HNT34 cell line derived from human. In the same way, the cell line transfected with shLuc (hereinafter, also called “HNT34 (shLuc)”) was established. For these cell lines, expression of EVI1 gene and genes of various integrin families were confirmed by the same method as in the Example 1.

EVI1 gene [5] = test: EVI1 gene expression by PCR in HNT34 cell line transfected with shEVI1; format: cell-based, human; conditions: HNT34(shEVI1) vs HNT34(shLuc); transfection with Nucleofector; FIG. 5
Text: as §2

EVI1 gene [6] = test: EVI1 gene expression by PCR and agarose gel electrophoresis in AML1 cells transduced with shEVI1; format: cell-based, human
Text: (§3) EVI1 expression-inhibited AML1 cell line (hereinafter, also called “AML1 (shEVI1)”) was established by the transfection of shEVI1, which is a short hairpin RNA (shRNA) having cleavage activity of mRNA of EVI1 gene, into the AML1 cell line, which was originated from human acute myelocytic leukemia (AML).
Specifically, at first, shEVI1 (sense strand: […] UUG (SEQ ID No: 7) and antisense strand: […] GAGA (SEQ ID No: 8), which had been disclosed in Oncogene, 2006 Jun. 15; 25 (25): 3565-75), were inserted into pSIREN-RetroQ-ZsGreen vector of RNAi-Ready pSIREN-RetroQ-ZsGreen (produced by Clonetech Laboratories, Inc.) at BamH1-EcoR1 site to prepare a shEVI1 retrovector. […] It should be noted that as a control cell, the cell (hereinafter, also called “AML1 (shLuc)”) was established by transfecting a control vector (shLuc) attached to RNAi-Ready pSIREN-RetroQ-ZsGreen (produced by Clonetech Laboratories, Inc.) by the same method.
Each cell cultured steadily of the established above mentioned AML1(shEVI1) and AML1(shLuc) was recovered by centrifugation, the medium was removed, and 1 ml of Trizol™ (produced by Invitrogen Corp.) was added. […] The resultant RNA was dissolved in RNase-free water, the amount of RNA was measured by spectrophotometer at wavelength of 260 nm, and 1 μg of the RNA was transformed to cDNA with reverse transcriptase (superscript 3, produced by Invitrogen Corp.). […]

AML1 cell = test: Accumulation of AML1 cells in thighbone bone marrow of transplanted NOG mouse (FACS); format: in vivo; conditions: 6 million AML1(shEVI1) cells injected into NOG mouse, bone marrow recovered 1 month after, control AML1(shLuc) printed as (330), FIG. 25
Description: The above-established AML1(shEVI1) cell was transplanted into NOG Mouse™, and accumulation of the AML1(shEVI1) cell into the murine thighbone was examined after the transplantation. Here, NOG mouse is a severe immunodeficient mouse suitable for the preparation of humanized model mouse that is available from the Central Institute for Experimental Animals.
Specifically, 6 million of each of the AML1 (shLuc) cell and the AML1 (shEVI1) cell was injected into NOG mouse through venous artery, and bone marrow of the thighbone was recovered 1 month after. After that, a graph representing the fluorescence intensity in the horizontal axis was prepared by FACS, and analysis was made how frequently cells were distributed from low intensity (peak near to 0) to high fluorescence intensity.

[7] = system: various integrin families including ITGA6 gene and ITGB4 gene; test: Expression of integrin family and VE cadherin genes by PCR and agarose gel electrophoresis in AML1 cells transduced with shEVI1; format: cell-based, human
Text: as §3
Specifically, at first, shEVI1 (sense strand: […] UUG (SEQ ID No: 7) and antisense strand: […] GAGA (SEQ ID No: 8), which had been disclosed in Oncogene, 2006 Jun. 15; 25 (25): 3565-75), were inserted into pSIREN-RetroQ-ZsGreen vector of RNAi-Ready pSIREN-RetroQ-ZsGreen (produced by Clonetech Laboratories, Inc.) at BamH1-EcoR1 site to prepare a shEVI1 retrovector. After that, 10 μg of the shEVI1 retrovector and 10 μg of p10A1 packaging vector (produced by Clonetech Laboratories, Inc.) were transduced to 293T cell using Hylimax liposome reagent (produced by DOJINDO Laboratories) to prepare a retrovirus containing shEVI1. After that, AML1 (shEVI1) was established by infecting the obtained retrovirus into 10^5 of AML1 cells. It should be noted that as a control cell, the cell (hereinafter, also called “AML1 (shLuc)”) was established by transfecting a control vector (shLuc) attached to RNAi-Ready pSIREN-RetroQ-ZsGreen (produced by Clonetech Laboratories, Inc.) by the same method.
Each cell cultured steadily of the established above mentioned AML1(shEVI1) and AML1(shLuc) was recovered by centrifugation, the medium was removed, and 1 ml of Trizol™ (produced by Invitrogen Corp.) was added. After that, 500 μL of chloroform was added, separated by centrifugation at 15000 rpm for 15 minutes, the upper layer was transferred to another tube, 500 μL of 2-propanol was added, separated by centrifugation at 15000 rpm for 10 minutes, and washed with 80% ethanol. The resultant RNA was dissolved in RNase-free water, the amount of RNA was measured by spectrophotometer at wavelength of 260 nm, and 1 μg of the RNA was transformed to cDNA with reverse transcriptase (superscript 3, produced by Invitrogen Corp.).
Using each of the resultant cDNA as a template, the cDNA was amplified by PCR method, and expression level of the genes was confirmed by agarose gel electrophoresis. Specifically, TaKaRa Extaq (produced by TaKaRaBio Inc.) was used as the polymerase, and PCR Thermal Cycler DICE (produced by TaKaRa Bio Inc.) was used as the PCR equipment. In addition, each cDNA was corrected by β-actin before the amplification by PCR. Base sequences of the primers used in the PCR were as follows;
The ones disclosed in Journal of Biomedical Science (2005)12:803-813.

AML1 cell line [8] = test: Cellular adhesiveness assay of AML1 cell line on matrigel-coated 96-well plate (Cell counting kit 8); format: cell-based, human; conditions: AML1(shITGB4) relative to AML1(shLuc); FIG. 8
Description: Cellular adhesiveness was evaluated for the above-established AML1(shEVI1) (triplicate) and AML1(shLuc).
as §1
Cellular adhesiveness was evaluated for the established above-mentioned AML1(shITGB4) and AML1(shLuc) by the same method as the above-mentioned Example 1-2.

ITGB4 gene = ITGB4 gene expression by PCR in AML1 cell line transfected with shITGB4; format: cell-based, human; conditions: AML1(shITGB4) compared with AML1(shLuc); FIG. 9
Text: ITGB4 expression-inhibited AML1 cell line (hereinafter also called “AML1(shITGB4)”) was established by the transfection of shRNA having an activity of cleaving mRNA of ITGB4 gene (hereinafter also called “shITGB4”) into AML1 cell line by the same method as the above-mentioned Example 2-1. It should be noted that the base sequences of the used shITGB4 were as follows.
Further, expression of ITGB4 gene in AML1 (shITGB4) was confirmed by the same method as the above-mentioned Example 1-1. As a result, as shown in the results of PCR agarose gel electrophoresis in FIG. 9, expression of ITGB4 gene was suppressed in AML1(shITGB4) compared with AML1(shLuc).

[9] = AML1(shEVI1) compared with AML1(shLuc), FIG. 1
[10] = triplicated experiment for AML1(shEVI1), AML1 cell not administered with shLuc or shEVI1 added as a control, FIG. 2

Nc1ccn([C@@H]2O[C@H](CO)[C@@H](O)[C@@H]2O)c(=O)n1 [Ara-C]
viability of AML1 cell line in the presence of the drug, osteoblast cell in the medium compared with none (AML1 cell line [1]; Ara-C (1 μg/mL), FIG. 19): increase significantly

COc1cc([C@@H]2c3cc4c(cc3[C@@H](O[C@@H]3O[C@@H]5CO[C@@H](C)O[C@H]5[C@H](O)[C@H]3O)[C@H]3COC(=O)[C@H]23)OCO4)cc(OC)c1O [VP16]
viability of AML1 cell line in the presence of the drug, osteoblast cell in the medium compared with none (AML1 cell line [1]; VP16 (5 μM), FIG. 18): increase significantly

B1: shEVI1: short hairpin RNA (shRNA) having cleavage activity of mRNA of EVI1 gene; SEQ ID No: 7 and SEQ ID No: 8 (nucleic acid)
chain 1: GAUCUCUCUAAGGCUGAACUAGCAGUUCAAGAGACUGCUAGUUCAGCCUUAGAUUUUUUG
chain 2: AAUUCAAAAAAUCUAAGGCUGAACUAGCAGUCUCUUGAACUGCUAGUUCAGCCUUAGAGA
decrease of cellular adhesiveness (ratio of the number of adhered cells to the number of total cells) (HNT34 cell line [2]): about 76%
cellular proliferation ability (HNT34 cell line [3]): no significant difference
expression of genes of various integrin families [4]: inhibited
expression of the EVI1 gene (EVI1 gene [5]): inhibited
EVI1 gene expression (EVI1 gene [6]; [9]): inhibited
EVI1 gene expression (EVI1 gene [6]; [10]): inhibition
abundance rate of transplanted cells in bone marrow of the thighbone (AML1 cell): 9.5%
drug resistance to Ara-C gained by the existence of osteoblast (AML1 cell line [1]; AML1(shEVI1) vs AML1(shLuc), in the presence of Ara-C, FIG. 20): disappeared
expression of VE cadoherin gene [7, 9]: inhibited
gene expressions of various integrin families including ITGA6 gene and ITGB4 gene [7, 9]: inhibition
expression of VE cadherin genes [7, 10]: inhibition
expression of various integrin families [7, 10]: inhibition

B2: shITGB4: shRNA having an activity of cleaving mRNA of ITGB4 gene; SEQ ID No: 13 and SEQ ID No: 14 (nucleic acid)
chain 1: GAUCUCCGAGUUGCGUGGGGUGUGUCUUCAAGAGAGACACACUCCGUGCAGCUCUUUUUG
chain 2: AAUUCAAAAAGAGCUGCACGGAGUGUGUCUCUCUUGAAGACACACCCCACGCAACUCGGA
cellular adhesiveness (ratio of the number of adhered cells to the number of total cells) (AML1 cell line [8]): decrease nearly to zero
expression of ITGB4 gene (ITGB4 gene): suppressed
